Reference: article PMC10540216, “Activity Guided Azide-methyllysine Photo-trapping for Substrate Profiling of Lysine Demethylases” (Journal of the American Chemical Society, 2023)

B1: LMNB1_HUMAN (protein, UniProt P20700 2-583, looked up)
Lamin-B1: ATATPVPPRMGSRAGGPTTPLSPTRLSRLQEKEELRELNDRLAVYIDKVRSLETENSALQLQVTEREEVRGRELTGLKALYETELADARRALDDTARERAKLQIELGKCKAEHDQLLLNYAKKESDLNGAQIKLREYEAALNSKDAALATALGDKKSLEGDLEDLKDQIAQLEASLAAAKKQLADETLLKVDLENRCQSLTEDLEFRKSMYEEEINETRRKHETRLVEVDSGRQIEYEYKLAQALHEMREQHDAQVRLYKEELEQTYHAKLENARLSSEMNTSTVNSAREELMESRMRIESLSSQLSNLQKESRACLERIQELEDLLAKEKDNSRRMLTDKEREMAEIRDQMQQQLNDYEQLLDVKLALDMEISAYRKLLEGEEERLKLSPSPSSRVTVSRASSSRSVRTTRGKRKRVDVEESEASSSVSISHSASATGNVCIEEIDVDGKFIRLKNTSEQDQPMGGWEMIRKIGDTSVSYKYTSRYVLKAGQTVTIWAANAGVTASPPTDLIWKNQNSWGTGEDVKVILKNSQGEEVAQRSTVFKTTIPEEEEEEEEAAGVVVEEELFHQQGTPRASNRSC
B2: LMNA_HUMAN (protein, UniProt P02545 1-661, looked up)
Prelamin-A/C: METPSQRRATRSGAQASSTPLSPTRITRLQEKEDLQELNDRLAVYIDRVRSLETENAGLRLRITESEEVVSREVSGIKAAYEAELGDARKTLDSVAKERARLQLELSKVREEFKELKARNTKKEGDLIAAQARLKDLEALLNSKEAALSTALSEKRTLEGELHDLRGQVAKLEAALGEAKKQLQDEMLRRVDAENRLQTMKEELDFQKNIYSEELRETKRRHETRLVEIDNGKQREFESRLADALQELRAQHEDQVEQYKKELEKTYSAKLDNARQSAERNSNLVGAAHEELQQSRIRIDSLSAQLSQLQKQLAAKEAKLRDLEDSLARERDTSRRLLAEKEREMAEMRARMQQQLDEYQELLDIKLALDMEIHAYRKLLEGEEERLRLSPSPTSQRSRGRASSHSSQTQGGGSVTKKRKLESTESRSSFSQHARTSGRVAVEEVDEEGKFVRLRNKSNEDQSMGNWQIKRQNGDDPLLTYRFPPKFTLKAGQVVTIWAAGAGATHSPPTDLVWKAQNTWGCGNSLRTALINSTGEEVAMRKLVRSVTVVEDDEDEDGDDLLHHHHGSHCSSSGDPAEYNLRSRTVLCGTCGQPADKASASGSGAQVGGPISSGSSASSVTVTRSYRSVGGSGGGSFGDNLVTRSYLLGNSSPRTQSPQNC
B3: NONO_HUMAN (protein, UniProt Q15233 1-471, looked up)
Non-POU domain-containing …: MQSNKTFNLEKQNHTPRKHHQHHHQQQHHQQQQQQPPPPPIPANGQQASSQNEGLTIDLKNFRKPGEKTFTQRSRLFVGNLPPDITEEEMRKLFEKYGKAGEVFIHKDKGFGFIRLETRTLAEIAKVELDNMPLRGKQLRVRFACHSASLTVRNLPQYVSNELLEEAFSVFGQVERAVVIVDDRGRPSGKGIVEFSGKPAARKALDRCSEGSFLLTTFPRPVTVEPMDQLDDEEGLPEKLVIKNQQFHKEREQPPRFAQPGSFEYEYAMRWKALIEMEKQQQDQVDRNIKEAREKLEMEMEAARHEHQVMLMRQDLMRRQEELRRMEELHNQEVQKRKQLELRQEEERRRREEEMRRQQEEMMRRQQEGFKGTFPDAREQEIRMGQMAMGGAMGINNRGAMPPAPVPAGTPAPPGPATMMPDGTLGLTPPTTERFGQAATMEGIGAIGGTPPAFNRAAPGAEFAPNKRRRY
B4: HNRPL_HUMAN (protein, UniProt P14866 1-589, looked up)
Heterogeneous nuclear …: MSRRLLPRAEKRRRRLEQRQQPDEQRRRSGAMVKMAAAGGGGGGGRYYGGGSEGGRAPKRLKTDNAGDQHGGGGGGGGGAGAAGGGGGGENYDDPHKTPASPVVHIRGLIDGVVEADLVEALQEFGPISYVVVMPKKRQALVEFEDVLGACNAVNYAADNQIYIAGHPAFVNYSTSQKISRPGDSDDSRSVNSVLLFTILNPIYSITTDVLYTICNPCGPVQRIVIFRKNGVQAMVEFDSVQSAQRAKASLNGADIYSGCCTLKIEYAKPTRLNVFKNDQDTWDYTNPNLSGQGDPGSNPNKRQRQPPLLGDHPAEYGGPHGGYHSHYHDEGYGPPPPHYEGRRMGPPVGGHRRGPSRYGPQYGHPPPPPPPPEYGPHADSPVLMVYGLDQSKMNCDRVFNVFCLYGNVEKVKFMKSKPGAAMVEMADGYAVDRAITHLNNNFMFGQKLNVCVSKQPAIMPGQSYGLEDGSCSYKDFSESRNNRFSTPEQAAKNRIQHPSNVLHFFNAPLEVTEENFFEICDELGVKRPSSVKVFSGKSERSSSGLLEWESKSDALETLGFLNHYQMKNPNGPYPYTLKLCFSTAQHAS

test system: KDM4A-I71AzF; experiment: CASI: photo-crosslinking with HEK293T cell extracts, StrepTactin enrichment and LC-MS/MS proteomics; assay type: binding, human; conditions: sheet "Final results but with 0.01";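 further: lysates from HEK293T cells pretreated with a KDM4 inhibitor to raise proteome methylation, affinity-purified after ±UV, gel-resolved, trypsin-digested, with exclusive unique peptides per protein averaged per condition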

First: B1
Second: B2
The “Fold change (+UV/-UV)” value of the first is lower: 0.7273 for the first, 1.25 for the second.

Compared with B3, B4 is lower in “Fold change (+UV/-UV)” value: 1.778 for the first, 1.125 for the second.
